Patent publication US20230192854A1 (SHANGHAI JUNSHI BIOSCIENCES, published 2023)
Numbering of substitutions follows the chain as printed.

T1: recombinant human FcγRIIA (CD32a) R167 (human, UniProt P12318 36-218)
T1 sequence (looked up): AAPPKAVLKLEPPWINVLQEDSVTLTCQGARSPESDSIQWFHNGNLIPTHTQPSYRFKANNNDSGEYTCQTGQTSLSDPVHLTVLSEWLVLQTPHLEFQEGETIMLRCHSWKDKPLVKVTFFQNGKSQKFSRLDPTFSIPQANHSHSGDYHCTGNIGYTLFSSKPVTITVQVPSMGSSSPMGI

T2: murine BTLA (murine, UniProt Q7TSA3 30-183, limits assumed)
T2 sequence (looked up): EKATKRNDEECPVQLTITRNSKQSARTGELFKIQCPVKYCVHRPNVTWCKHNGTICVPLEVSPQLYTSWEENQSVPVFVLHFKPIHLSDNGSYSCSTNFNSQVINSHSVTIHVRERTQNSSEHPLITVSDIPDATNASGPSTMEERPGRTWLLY

B1: recombinant humanized anti-BTLA monoclonal antibody hu18 (antibody, human IgG4 S228P, kappa)
heavy: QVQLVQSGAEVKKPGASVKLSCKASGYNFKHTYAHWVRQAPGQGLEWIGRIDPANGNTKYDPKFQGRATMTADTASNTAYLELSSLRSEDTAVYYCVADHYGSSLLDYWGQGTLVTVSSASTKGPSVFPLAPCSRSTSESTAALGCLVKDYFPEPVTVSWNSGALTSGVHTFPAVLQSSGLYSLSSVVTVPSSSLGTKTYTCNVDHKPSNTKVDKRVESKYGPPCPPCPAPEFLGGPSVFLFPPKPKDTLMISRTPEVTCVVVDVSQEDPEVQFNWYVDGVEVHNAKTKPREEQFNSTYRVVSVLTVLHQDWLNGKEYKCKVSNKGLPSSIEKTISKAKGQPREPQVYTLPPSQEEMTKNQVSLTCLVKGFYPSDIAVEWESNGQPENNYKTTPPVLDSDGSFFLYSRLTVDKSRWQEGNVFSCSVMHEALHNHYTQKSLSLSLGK
light: DVVMTQTPLSLSVTPGQPASISCKSSQSLLDSDGKTYLNWFQQRPGQSPRRLIYLVSKLDSGVPDRFSGSGSGTDFTLKISRVEAEDVGVYYCWQGTYFPYTFGQGTKLEIKRTVAAPSVFIFPPSDEQLKSGTASVVCLLNNFYPREAKVQWKVDNALQSGNSQESVTEQDSKDSTYSLSSTLTLSKADYEKHKVYACEVTHQGLSSPVTKSFNRGEC
notes: also called recombinant human anti-BTLA antibody of the IgG4 subtype
B2: humanized anti-BTLA antibody hu17 (antibody, V domains shown)
VH: QVQLVQSGAEVKKPGASVKLSCKASGYNFKHTYAHWVRQAPGQGLEWIGRIDPANGNTKYDPKFQGRATMTADTASNTAYLELSSLRSEDTAVYYCVADHYGSSLLDYWGQGTLVTVSS
VL: DIVMTQTPLSLSVTPGQPASISCKSSQSLLDSDGKTYLNWFQQRPGQSPRRLIYLVSKLDSGVPDRFSGSGSGTDFTLKISRVEAEDVGVYYCWQGTYFPYTFGQGTKLEIK
notes: Called a full humanized antibody; also called hul7; hull
B3: humanized anti-BTLA antibody hu19 (antibody, V domains shown)
VH: B2 VH
VL: B2 VL with I53M, Y54H

What was measured:
human C1q = molecular target: T3, human C1q (human, UniProt P02745 23-245; P02746 28-253; P02747 29-245); assay: C1q binding assay, method not described (Table 18: 'Non-specific binding')
T3 construct: also called C1q protein

[1] = molecular target: T1, recombinant human FcγRIIA (CD32a) R167; assay: SPR, Biacore T200; Fc receptor captured on anti-His antibody, antibody injected
From the text: (§1) ADCC is initiated when an antibody binds to a cell surface target protein and then links to an Fc γ receptor (FcγR) expressed on effector cells. […] In conjunction with ADCC, CDC is activated when antibodies cross-link the cell surface target and C1q protein, followed by a cascade reaction of complement complex formation and target cell lysis. As a proxy for ADCC and CDC, the detection of antibody binding to FcγR and C1q may serve as basic indicators of ADCC and CDC. Thus, in the present invention, the kinetic binding affinity of monoclonal antibodies for major FcγRs was evaluated using biacore T200 (GE).
(§2) Anti-His antibody (GE) was immobilized on the sensor wafer. Various Fc receptors, including recombinant human FcγRIIIA (CD16a) V176, recombinant human FcγRIIA (CD32a) R167, recombinant human FcγRI (CD64) and recombinant human FcRn were captured, then a series of diluted recombinant human anti-BTLA antibodies (i.e., hu18) were injected, and the binding properties of the interactions were assayed and analyzed. hu18 is an IgG4 subtype, and hu18-IgG1 is an IgG1 subtype that shares the same Fab as hu18 and serves as a positive control.

[2] = molecular target: recombinant human FcγRI (CD64) (human, UniProt P12314 16-288); assay: as above
From the text: as §1, §2

[3] = molecular target: recombinant human FcγRIIIA (CD16a) V176 (human, UniProt P08637 17-208); assay: as above
From the text: as §1, §2

recombinant human FcRn = molecular target: T4, recombinant human FcRn (human, UniProt P55899 24-297; P61769 21-119); assay: as above
T4 construct: Captured on an anti-His antibody
From the text: as §1, §2

hBTLA expressed on cells = hBTLA expressed on cells (human, UniProt Q7Z6A9 31-289); assay: cell-based or functional assay
murine BTLA = molecular target: T2, murine BTLA; assay: OD 450 nm against log ng/mL of antibody (ELISA-type readout as drawn; Example 11 describes a Fortebio/SPR chip assay with BTLA coupled to the chip)

T4 sequence (P55899 24-297 limits assumed, form in doubt, chain 1 of 2): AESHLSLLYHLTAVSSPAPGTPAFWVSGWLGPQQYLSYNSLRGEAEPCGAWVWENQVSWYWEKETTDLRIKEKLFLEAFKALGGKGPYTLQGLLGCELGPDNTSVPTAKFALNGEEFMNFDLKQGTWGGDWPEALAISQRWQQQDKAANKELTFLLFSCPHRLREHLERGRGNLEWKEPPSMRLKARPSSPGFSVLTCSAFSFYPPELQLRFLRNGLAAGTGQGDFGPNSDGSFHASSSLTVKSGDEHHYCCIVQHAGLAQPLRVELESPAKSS
T4 sequence (P61769 21-119 limits assumed, form in doubt, chain 2 of 2): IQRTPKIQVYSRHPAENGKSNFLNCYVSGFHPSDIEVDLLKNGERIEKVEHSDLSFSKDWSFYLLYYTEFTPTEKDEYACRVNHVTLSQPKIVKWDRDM
Sequence of recombinant human FcγRI (CD64) (P12314 16-288 limits assumed): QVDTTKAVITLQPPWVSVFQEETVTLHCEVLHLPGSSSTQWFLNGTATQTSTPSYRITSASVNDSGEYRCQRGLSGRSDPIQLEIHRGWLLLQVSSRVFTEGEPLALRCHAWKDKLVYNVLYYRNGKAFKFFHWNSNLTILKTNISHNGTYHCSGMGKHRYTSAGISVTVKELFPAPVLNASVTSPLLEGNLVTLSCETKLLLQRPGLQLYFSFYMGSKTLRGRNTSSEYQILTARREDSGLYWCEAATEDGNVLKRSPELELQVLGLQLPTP
Sequence of recombinant human FcγRIIIA (CD16a) V176 (P08637 17-208 F176V): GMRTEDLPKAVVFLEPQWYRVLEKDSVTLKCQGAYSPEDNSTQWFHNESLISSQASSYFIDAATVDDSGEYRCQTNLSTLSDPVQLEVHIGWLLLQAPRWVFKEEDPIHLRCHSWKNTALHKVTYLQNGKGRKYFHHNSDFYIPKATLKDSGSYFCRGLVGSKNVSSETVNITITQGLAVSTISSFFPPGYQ
T3 sequence (P02745 23-245 limits assumed, chain 1 of 3): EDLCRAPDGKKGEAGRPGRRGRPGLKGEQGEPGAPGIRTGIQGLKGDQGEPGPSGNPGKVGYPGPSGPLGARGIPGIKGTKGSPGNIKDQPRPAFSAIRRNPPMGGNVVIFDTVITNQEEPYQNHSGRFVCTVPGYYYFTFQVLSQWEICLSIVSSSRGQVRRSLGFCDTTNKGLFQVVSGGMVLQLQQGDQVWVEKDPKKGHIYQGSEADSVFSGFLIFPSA
T3 sequence (P02746 28-253 limits assumed, chain 2 of 3): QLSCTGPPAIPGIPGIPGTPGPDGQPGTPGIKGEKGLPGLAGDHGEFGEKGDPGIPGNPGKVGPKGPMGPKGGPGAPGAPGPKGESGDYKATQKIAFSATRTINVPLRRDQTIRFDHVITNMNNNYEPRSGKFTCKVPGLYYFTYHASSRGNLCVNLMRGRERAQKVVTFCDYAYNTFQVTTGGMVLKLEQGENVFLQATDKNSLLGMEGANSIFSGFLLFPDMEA
T3 sequence (P02747 29-245 limits assumed, chain 3 of 3): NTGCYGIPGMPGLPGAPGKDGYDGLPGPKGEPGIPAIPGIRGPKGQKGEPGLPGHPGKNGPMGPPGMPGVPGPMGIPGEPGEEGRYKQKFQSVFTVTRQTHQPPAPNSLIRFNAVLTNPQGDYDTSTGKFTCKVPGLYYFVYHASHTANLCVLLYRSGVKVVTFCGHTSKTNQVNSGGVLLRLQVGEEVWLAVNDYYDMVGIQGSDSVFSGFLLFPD

| Binder | binding result (human C1q) | Kd [1] [µM] | Kd [2] [µM] | koff [2] [s⁻¹] | kon [2] [M⁻¹ s⁻¹] | Kd [3] [µM] | fold weaker interaction than the control antibody of the IgG1 subtype (hu18-IgG1) [3] [fold] | Kd (recombinant human FcRn) [µM] | koff (recombinant human FcRn) [s⁻¹] | kon (recombinant human FcRn) [M⁻¹ s⁻¹] | EC50 (ng/mL); NFAT-luciferase luminescence of Jurkat hPD-1/hBTLA report cells co-cultured with CHO cells expressing hPD-L1/hHVEM (hBTLA expressed on cells) [ng/mL] | binding result (murine BTLA) |
| --- | --- | --- | --- | --- | --- | --- | --- | --- | --- | --- | --- | --- |
| B1 | no binding | 40.6 | 0.0184 | 0.00387 | 210000 | 60.2 | 400 | 0.138 | 0.0708 | 512000 | 277 |  |
| B2 |  |  |  |  |  |  |  |  |  |  | 257 | no binding (tested: 1000 ng/mL (log 3)) |
| B3 |  |  |  |  |  |  |  |  |  |  | 290 |  |
